The values that follow come from article PMC2923608, “Structural Insights into the Quinolone Resistance Mechanism of Mycobacterium tuberculosis DNA Gyrase” (PLoS ONE, 2010).

By stoichiometry N is commonly meant the number of molecules, sites or subunits per partner or assembly.

Series [1] deals with the molecule itself. Briefly: AUC; sedimentation velocity, 20°C, 42000 rpm, 20 mM Tris pH 8; GA57BK at 1 mg/ml (17.5 µM).
Series [2] concerns the molecule itself. Briefly: AUC; sedimentation velocity, 20°C, 42000 rpm, 20 mM Tris pH 8; TopBK at 0.5, 1 and 4 mg/ml (18, 37 and 148 µM); the result is told for the concentration corresponding to the crystallization conditions; monomer and dimer.

B1: breakage-reunion domain of DNA gyrase subunit A from M. tuberculosis (GA57BK) (domain or fragment)
chain: MTDTTLPPDDSLDRIEPVDIEQEMQRSYIDYAMSVIVGRALPEVRDGLKPVHRRVLYAMFDSGFRPDRSHAKSARSVAETMGNYHPHGDASIYDSLVRMAQPWSLRYPLVDGQGNFGSPGNDPPAAMRYTEARLTPLAMEMLREIDEETVDFIPNYDGRVQEPTVLPSRFPNLLANGSGGIAVGMATNIPPHNLRELADAVFWALENHDADEEETLAAVMGRVKGPDFPTAGLIVGSQGTADAYKTGRGSIRMRGVVEVEEDSRGRTSLVITELPYQVNHDNFITSIAEQVRDGKLAGISNIEDQSSDRVGLRIVIEIKRDAVAKVVINNLYKHTQLQTSFGANMLAIVDGVPRTLRLDQLIRYYVDHQLDVIVRRTTYRLRKANERAHILRGLVKALDALDEVIALIRASETVDIARAGLIELLDIDEIQAQAILDMQLRRLAALERQRIIDDLAKIEAEIADLEDILAKPERQRGIVRDELAEIVDRHGDDRRTRIIAAD
notes: DNA gyrase subunit A (GyrA), Mycobacterium tuberculosis, breakage-reunion domain, residues 1-502, 57 kDa; also called entire N-terminal GyrA domain
Regarding B1, in series [1], the “stoichiometry N” value turned out to be 2.

B2: Toprim domain of DNA gyrase subunit B from Mycobacterium tuberculosis (TopBK) (domain or fragment)
chain: TDPRKSELYVVEGDSAGGSAKSGRDSMFQAILPLRGKIINVEKARIDRVLKNTEVQAIITALGTGIHDEFDIGKLRYHKIVLMADADVDGQHISTLLLTLLFRFMRPLIENGHVFLAQPPLYKLKWQRSDPEFAYSDRERDGLLEAGLKAGKKINKEDGIQRYKGLGEMDAKELWETTMDPSVRVLRQVTLDDAAAADELFSILMGEDVDARRSFITRNAKDVRFLDV
notes: DNA gyrase subunit B (GyrB), Mycobacterium tuberculosis, Toprim domain; the methods give residues 448-675, the results give 448-654 (the crystal model runs from T448 to E654); also called C-terminal GyrB domain
As to B2, the “stoichiometry N” value in series [2] is 2.
